The values that follow come from the DeepSol protein solubility set.

The nature of this series: soluble on expression in E. coli; label from the status in PepcDB or PDB records.
On to “AIADKKAMWDRFYTENGSKGQFKNFEWFFGFPSVKDLVLPALQAMSCSHSGPLHILDMGCGTSALGPCIYSTSPCAVRVTCADISPVAVKLMEEHTKSTSTQPCNPSSALVFLELDCTQMTGHFKSRSLDLILDKGTTDALVRSKEGQVKAGQILRQSLQVLRPSGSFLQFSDEDPDARLIWLEREVQGAEVTADVGVQEIGELRGVSYFCYQISPRSRPHS”, for which the “soluble on expression in E. coli” value is given as “soluble”.

As to “SAAHQMDSITYSNNVTQQYIQPQSLQDISAVEDEIQNKIEAARQESKQLHAQINKAKHKIQDASLFQMANKVTSLTKNKINLKPNIVLKGHNNKISDFRWSRDSKRILSASQDGFMLIWDSASGLKQNAIPLDSQWVLSCAISPSSTLVASAGLNNNCTIYRVSKENRVAQNVASIFKGHTCYISDIEFTDNAHILTASGDMTCALWDIPKAKRVREYSDHLGDVLALAIPEEPNSENSSNTFASCGSDGYTYIWDSRSPSAVQSFYVNDSDINALRFFKDGMSIVAGSDNGAINMYDLRSDCSIATFSLFRGYEERTPTPTYMAANMEYNTAQSPQTLKSTSSSYLDNQGVVSLDFSASGRLMYSCYTDIGCVVWDVLKGEIVGKLEGHGGRVTGVRSSPDGLAVCTGSWDSTMKIWSPGYQ”, the “soluble on expression in E. coli” value is “not soluble”.

Consider “MGSDKIHHHHHHMKVLLINGSPNQYGCTYTALNEITKVLSKHDIKTEILYLGKETIPGCISCASCFETGKCIRNDKVNELIEDLDNIDGIIIGSPVYFSSATGQLTSFLDRLFFIAGSRMATKLGASVVSCRRGGASATFDQLNKYFSISNMPIVSSQYWNQVHGFTPEDVMKDEEGLQTMRTLGENMAWLLKCISAGKKAGIKEPQYEETIMTNFIK”, for which the “soluble on expression in E. coli” value is reported as “not soluble”. Next, “MLTCTVDTQFGRLTLREEAGALVSVSWGSAAREDASELLQRASLQVSEYDQGARQQFDLPVRIRGSAFQRAVCDAICAIPFGDTCTYGDIARALGVPAQAVGQACGANPIPIIIPCHRVMGAKGLTGFSGVGGVETKVALLRHEGAAGLLILEHHHHHH”: “not soluble”. Turning to “MAGNSNLMIKTLRKISEILKKPPKASSESDVTVRDKACQALGSIKRLIGDTITAFIGPISTETAKIEKINQYQQEAAEEFKKFQETQPKAGGDGGAENSAENLDENQENSPEKAEKPQVLDAWELLEPEDCSKKIDKSVETQLIDKNWKERLAGAENVKKSMENAGRIEISERLTEISKLLMKIVEKDVNVNVGAISAQILAEIAKKSRFSFAPLALRAFPVVFDKLKDKKAILRDALVEFCDEAANTTPLSAYSEAVITALSNKNPQARQQTALFLSRFFAKNDPKTVETEAVKQLAEHILKTSNDADKEVREAALRIVAAVQKCLGEGVAKRLLAEVYDDKLKAEKLPPLIEELEKEFGSSASPEMLRLAKHYKIGASSTSAPPKTTAAGAPKRPSSAVAPRRAPPASAAPTRRAPSPKAPVVAPTRRAPSPKAPVASVAPVKPKPFVARPAPSFGKPRAAVAPARAPQITQRAPAATRPSTSAIRVTPIAPNVVRNGAPTTAQQAPRKPIGIARPQTSSGIAAPGAPRSRIAMPTTSSSSLARRPGSASSSVPRVPTGAASMTSSSRIRPPSRPGSRPGSRNE”, the “soluble on expression in E. coli” value is “not soluble”.

As for “MYRFCVALTPSTSEDEQVVRKSEKPASKPPTPEVEDCTFSEKNNDQRKIEKETESEESSNLKFPPARPSIRNATNFRRIICISESDSGKEEPVVKKEVLKTNKLRISETKPEYPPELLQLEARLQELRAGRKNKQGRINRKFVAKPCGVVSGETPQRPFLEEMYYFNPQETGTASEIFDMLFPAKDTPNFRPWLDGHFSAPDLQFKQIEKQRQTKLHSYTGTTLQEKKRKKRKKILKSIQEILWLLHFQKHDDFLESTSRLTIKNFSCHFDEHQRLKLLRNNDLSLICNYQIGSENTPIFNQRSTDCMLRPVFIDGLSFMDMLIPISSSLPIISTRSLLEILLNFILDGCQTVIYLPDYYNDTTNQKVDDSTIFQFLCNSKLIQFVDGRSRRAVERQVLLEAEKVHGVFVSSAEEFLTRNAIQCFPVINRYSKRLDEFLICTVFLVNNLPKKILAQDFVEESRVLKPEGSSSAVSSTTVLEESHQKISGAMEDSEDEPADPQTLKQEYLIKEECSEISEDSEEGAIVDVASSSGDLSENRDQKSENEEFEYSPHQLTLEQQTYLISSMAQLSIFHFQRYRQIRVFLMIIKRYVPELLPSFMQKTRMDDVAMAIQDIQNGKDLLYWPIFSKIDN”, the “soluble on expression in E. coli” value was “not soluble”. Next, “MERAEILGVGTELLYGETLDTNTAEIARSLKPYALKVERTLRVADEVAPLAREVEEAFARARLVVLSGGLGPTPDDVTREAVALALGEPLELDEAVLGEIEAFFRARGRAMPEANRKQAMRIPSATWLKNPRGTAPGWWVRKGGKDLVLLPGPPPEWRPMWQEVLPRLGLPRRPYAERVLKTWGIGESEIVERLGPLFVRGEEVEVGTYPKVHGVEVVVRGREDRVAELAERIKKKLLKEVWGEGEMTLAEAVKRRMEREGATLSTMESLTGGLLGAEITRVPGASRFYLGGVVSYSVGAKARFGVPQDLLSRTVSAETARAMAEAARSLFGSTYALATTGVAGPDPLEGEPPGTVYVALAGPTGAEVRRYRFPGDRETVRLRSVYAALALLVT”: “soluble”; “MSLAKLTINDIAKKAKTSKTTVSFYLNGKFDKMSPDTKRRIEQVIEETNYSPNIMARSLKLKKSNLIGVVVADITNPFSSNIVKGIGEITRRKGYQILVGSTNLDYYNEEEYFKKMLDMGVDGFIVQPTKNFDKLYPAIKNKGKKIVVLDSVSSRYTGKWVKTNNYEIVYEAVLKLAEKGYEEFILVTEAPDKLAARMERKTGFEDAVNKINCKSFIEIINENTEVDEIAEMLKINISNNKKTVIFAINGKILQKVFKAVKMEGFDVPNHVGIIGFDKWDWTMYASPSVTTIDQPTYEEGKYAAKMLIEMIEENDDFYKSEVFDCNINWEESTDEGHHHHHH”: “soluble”. Next, “MSLHQFLLFKIKVPTGSMMPTVEIGDQLFVTKIYNPNNIKRGDIVVFNSDELKEPLLKRVIGLPGEHVEIKSDGSVYINGNKLEEDYVKYQGGKTDMSFDVPSGKFLMLGDNRNNSDDARYWSNPYIDGKDIEAKAQLTVYPFDRIGFVKEGHHHHHH”: “soluble”. In the case of “MNVKPLQAKDVAEKVLFGELFILDVRNEADYEDWKIEGKQVSSINKPYFDLLDGVDHIVSELPKDKDVLVVCAKEGSSIFVAEQLTEAGLQNIYYLAGGMKAWSEYVKPIKVGNLKDGGSMYQFNRLGKGCLSYMVISNGEAAVIDAVRTAEAYEEFAKEHGVTIKNVMDTHLHADHISGGRKLAEKVGGTYWLPPKDAEEVVFSYEPLVEGSVITVGGTKIEIDALYSPGHTIGSTSFIVDDSYLLSGDILFVDSIGRPDLAGKAEDWVSDLRNTLYSRYKELSQNLVVLPAHYSKVSEMNESGIVSAKLKDLFANNAGLNIEDEGEFRKVVTENLPPQPNAYEEIRQTNMGKIHPSVDKEREMEIGPNRCAVHE”, the “soluble on expression in E. coli” value is listed as “not soluble”.
